Test results as given in US20030165887A1 (BURNHAM INSTITUTE, published 2003).

Columns and labels:
Assay in all cases: co-immunoprecipitation, transfected HEK293T cells, SDS-PAGE/immunoblot
cIAP2 = cIAP2 (Homo sapiens (Human), UniProt Q13489 1-604)
Method: (§1) The TUCAN polypeptides were expressed by transient transfection in HEK293T cells together with epitope-tagged pro-caspase-9 or other proteins. […] Cell lysates were prepared from transfected cells and immunoprecipitations were performed using anti-Flag or anti-Myc antibodies, followed by SDS-PAGE/immunoblot analysis.

pro-caspase-10 = molecular target: T1, pro-caspase-10 (UniProt Q92851 1-521, limits assumed)
T1 sequence (looked up): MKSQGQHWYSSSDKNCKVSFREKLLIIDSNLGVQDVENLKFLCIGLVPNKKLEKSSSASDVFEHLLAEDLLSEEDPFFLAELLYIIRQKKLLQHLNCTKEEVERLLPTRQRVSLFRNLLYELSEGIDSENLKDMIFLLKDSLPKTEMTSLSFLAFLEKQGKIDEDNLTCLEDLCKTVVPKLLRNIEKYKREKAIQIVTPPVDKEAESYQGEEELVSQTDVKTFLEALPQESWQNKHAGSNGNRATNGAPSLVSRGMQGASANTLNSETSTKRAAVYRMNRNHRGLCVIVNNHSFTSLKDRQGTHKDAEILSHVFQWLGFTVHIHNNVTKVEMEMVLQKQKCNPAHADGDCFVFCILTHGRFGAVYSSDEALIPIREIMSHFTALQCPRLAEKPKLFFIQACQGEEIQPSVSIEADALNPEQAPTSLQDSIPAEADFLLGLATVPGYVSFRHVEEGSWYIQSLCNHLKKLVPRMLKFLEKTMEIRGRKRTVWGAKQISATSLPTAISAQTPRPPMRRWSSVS
Method: as §1

pro-Caspase-2 = molecular target: T2, pro-Caspase-2 (UniProt P42575 1-452, limits assumed)
T2 sequence (looked up): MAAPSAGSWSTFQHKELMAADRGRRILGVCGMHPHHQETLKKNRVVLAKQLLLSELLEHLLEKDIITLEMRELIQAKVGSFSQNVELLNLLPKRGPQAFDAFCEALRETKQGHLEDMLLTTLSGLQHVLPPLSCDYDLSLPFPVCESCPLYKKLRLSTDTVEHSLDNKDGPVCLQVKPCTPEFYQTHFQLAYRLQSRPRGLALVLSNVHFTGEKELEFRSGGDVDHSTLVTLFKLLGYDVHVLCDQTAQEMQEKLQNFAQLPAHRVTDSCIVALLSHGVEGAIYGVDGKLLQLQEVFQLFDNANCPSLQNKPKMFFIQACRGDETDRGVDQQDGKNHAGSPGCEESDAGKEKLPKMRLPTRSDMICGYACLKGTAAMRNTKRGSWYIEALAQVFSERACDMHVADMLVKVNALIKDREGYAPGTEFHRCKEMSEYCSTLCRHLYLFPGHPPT
Method: as §1

CED4 = molecular target: T3, CED4 (UniProt P30429 1-549, limits assumed)
T3 sequence (looked up): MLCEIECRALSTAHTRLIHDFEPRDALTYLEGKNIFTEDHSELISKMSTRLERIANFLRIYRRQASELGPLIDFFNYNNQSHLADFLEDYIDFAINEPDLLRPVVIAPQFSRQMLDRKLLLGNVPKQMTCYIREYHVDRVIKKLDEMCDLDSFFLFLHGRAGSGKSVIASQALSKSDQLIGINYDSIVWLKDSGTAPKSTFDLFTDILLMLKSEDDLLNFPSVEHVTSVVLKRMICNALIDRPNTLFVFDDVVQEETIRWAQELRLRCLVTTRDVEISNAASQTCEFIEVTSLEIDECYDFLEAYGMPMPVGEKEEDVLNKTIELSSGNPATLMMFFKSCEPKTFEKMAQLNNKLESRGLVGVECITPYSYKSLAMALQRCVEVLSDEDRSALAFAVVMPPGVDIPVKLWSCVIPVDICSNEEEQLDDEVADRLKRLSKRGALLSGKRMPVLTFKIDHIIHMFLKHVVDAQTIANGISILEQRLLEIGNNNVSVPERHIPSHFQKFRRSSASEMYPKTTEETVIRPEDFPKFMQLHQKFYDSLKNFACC
Method: as §1

Nod1 (CARD4) = molecular target: T4, Nod1 (CARD4) (UniProt Q9Y239 1-953, limits assumed)
T4 construct: also called Nodl
T4 sequence (looked up): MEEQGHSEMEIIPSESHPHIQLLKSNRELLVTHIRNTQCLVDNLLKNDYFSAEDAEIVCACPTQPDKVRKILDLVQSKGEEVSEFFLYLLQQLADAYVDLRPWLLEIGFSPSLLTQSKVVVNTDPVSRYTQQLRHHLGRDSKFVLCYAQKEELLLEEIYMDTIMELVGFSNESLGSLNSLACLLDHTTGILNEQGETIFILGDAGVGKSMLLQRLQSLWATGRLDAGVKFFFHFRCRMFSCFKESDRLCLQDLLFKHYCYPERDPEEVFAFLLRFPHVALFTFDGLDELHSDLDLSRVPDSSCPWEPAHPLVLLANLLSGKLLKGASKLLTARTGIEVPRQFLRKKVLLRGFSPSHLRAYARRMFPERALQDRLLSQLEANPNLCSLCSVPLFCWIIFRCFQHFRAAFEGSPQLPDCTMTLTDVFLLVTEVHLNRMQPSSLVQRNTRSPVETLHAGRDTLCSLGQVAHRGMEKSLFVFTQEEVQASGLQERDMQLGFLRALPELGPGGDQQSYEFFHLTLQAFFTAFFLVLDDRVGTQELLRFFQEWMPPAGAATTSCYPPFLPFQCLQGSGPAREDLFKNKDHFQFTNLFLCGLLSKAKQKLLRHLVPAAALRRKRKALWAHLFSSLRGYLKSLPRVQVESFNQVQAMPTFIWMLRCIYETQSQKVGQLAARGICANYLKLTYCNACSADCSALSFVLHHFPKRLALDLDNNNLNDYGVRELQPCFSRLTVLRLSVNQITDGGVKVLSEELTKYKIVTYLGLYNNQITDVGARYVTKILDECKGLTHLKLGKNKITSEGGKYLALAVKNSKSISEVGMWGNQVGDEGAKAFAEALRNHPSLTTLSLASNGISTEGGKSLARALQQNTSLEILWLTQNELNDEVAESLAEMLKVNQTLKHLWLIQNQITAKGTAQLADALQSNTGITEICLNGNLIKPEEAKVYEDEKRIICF
Method: as §1

Cardiak (RIP2) = molecular target: T5, Cardiak (RIP2) (UniProt O43353 1-540, limits assumed)
T5 construct: also called RICK
T5 sequence (O43353 whole entry): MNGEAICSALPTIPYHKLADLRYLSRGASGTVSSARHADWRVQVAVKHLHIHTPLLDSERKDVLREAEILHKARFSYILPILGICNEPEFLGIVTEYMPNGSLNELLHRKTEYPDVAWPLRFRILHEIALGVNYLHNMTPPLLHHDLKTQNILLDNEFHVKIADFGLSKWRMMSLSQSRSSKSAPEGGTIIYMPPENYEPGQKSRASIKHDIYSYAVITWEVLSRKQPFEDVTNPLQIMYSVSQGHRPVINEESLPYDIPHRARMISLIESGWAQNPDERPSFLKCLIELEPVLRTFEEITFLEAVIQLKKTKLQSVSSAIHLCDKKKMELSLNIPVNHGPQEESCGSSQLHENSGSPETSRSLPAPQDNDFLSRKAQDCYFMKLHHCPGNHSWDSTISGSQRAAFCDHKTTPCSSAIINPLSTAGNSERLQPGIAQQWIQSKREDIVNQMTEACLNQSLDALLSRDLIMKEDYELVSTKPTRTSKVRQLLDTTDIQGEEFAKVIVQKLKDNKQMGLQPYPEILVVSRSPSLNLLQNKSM
Method: as §1

pro-caspase-8 = pro-caspase-8 (UniProt Q14790 1-479, limits assumed)
pro-caspase-8, sequence (Q14790 whole entry): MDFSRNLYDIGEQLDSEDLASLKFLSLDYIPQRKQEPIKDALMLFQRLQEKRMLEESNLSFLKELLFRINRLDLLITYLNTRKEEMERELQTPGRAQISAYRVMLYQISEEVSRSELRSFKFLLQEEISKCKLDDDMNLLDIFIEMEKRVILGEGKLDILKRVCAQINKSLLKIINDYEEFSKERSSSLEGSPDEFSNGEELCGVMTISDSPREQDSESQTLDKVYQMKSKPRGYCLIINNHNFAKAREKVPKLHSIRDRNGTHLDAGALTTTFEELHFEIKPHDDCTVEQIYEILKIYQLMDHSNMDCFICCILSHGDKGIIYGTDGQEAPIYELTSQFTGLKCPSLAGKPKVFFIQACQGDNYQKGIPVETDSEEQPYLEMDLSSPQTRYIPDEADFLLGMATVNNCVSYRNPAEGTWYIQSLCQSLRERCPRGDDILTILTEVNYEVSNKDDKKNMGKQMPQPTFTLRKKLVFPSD
Method: as §1

cIAP2, sequence (Q13489 whole entry): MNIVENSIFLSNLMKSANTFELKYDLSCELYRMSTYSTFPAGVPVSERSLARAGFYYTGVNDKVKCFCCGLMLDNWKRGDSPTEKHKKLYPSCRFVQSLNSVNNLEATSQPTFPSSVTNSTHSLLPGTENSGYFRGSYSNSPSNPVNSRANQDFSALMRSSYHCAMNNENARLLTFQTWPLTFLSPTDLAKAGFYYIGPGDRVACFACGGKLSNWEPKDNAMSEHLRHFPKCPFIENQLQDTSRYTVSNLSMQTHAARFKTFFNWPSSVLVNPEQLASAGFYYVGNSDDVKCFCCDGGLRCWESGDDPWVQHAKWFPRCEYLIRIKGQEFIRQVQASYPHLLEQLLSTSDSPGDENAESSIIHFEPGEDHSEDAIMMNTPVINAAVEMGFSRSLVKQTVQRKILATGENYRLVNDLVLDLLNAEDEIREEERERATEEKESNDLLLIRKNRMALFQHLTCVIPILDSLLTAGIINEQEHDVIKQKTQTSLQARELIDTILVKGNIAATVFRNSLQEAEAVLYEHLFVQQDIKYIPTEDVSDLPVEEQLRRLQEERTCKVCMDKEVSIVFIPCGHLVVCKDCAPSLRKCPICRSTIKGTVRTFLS

- binding result (cIAP2): no binding
- binding result (pro-caspase-10): no binding
- binding result (pro-Caspase-2): no binding
- binding result (CED4): no binding
- binding result (Nod1 (CARD4)): no binding
- binding result (Cardiak (RIP2)): no binding
- binding result (pro-caspase-8): no binding
B1: TUCAN (Tumor Up-regulated CARD-containing Antagonist of Caspase Nine), full-length (other)
chain: MMRQRQSHYCSVLFLSVNYLGGTFPGDICSEENQIVSSYASKVCFEIEEDYKNRQFLGPEGNVDVELIDKSTNRYSVWFPTAGWYLWSATGLGFLVRDEVTVTIAFGSWSQHLALDLQHHEQWLVGGPLFDVTAEPEEAVAEIHLPHFISLQGEVDVSWFLVAHFKNEGMVLEHPARVEPFYAVLESPSFSLMGILLRIASGTRLSIPITSNTLIYYHPHPEDIKFHLYLVPSDALLTKAIDDEEDRFHGVRLQTSPPMEPLNFGSSYIVSNSANLKVMPKELKLSYRSPGEIQHFSKFYAGQMKEPIQLEITEKRHGTLVWDTEVKPVDLQLVAASAPPPFSGAAFVKENHRQLQARMGDLKGVLDDLQDNEVLTENEKELVEQEKTRQSKNEALLSMVEKKGDLALDVLFRSISERDPYLVSYLRQQNL
notes: Full-length TUCAN expressed by transient transfection in HEK293T cells; also called full-length TUCAN; CARD-X
